Measured values reported in US20230312740A1 (VIRTUOSO BINCO, published 2023).
Where a chain is given by its changes, count along the chain named. Values belong to the binder of their own block, whether it stands above or below them.

Tests used:
[1] = molecular target: T1, CD38 on the surface of tumor cells (human, UniProt P28907 1-300); assay: cell-based or functional assay
[2] = molecular target: T1, CD38 on the surface of tumor cells; assay: flow cytometry on Daudi cells
Protocol: (§1) Surface expression of CD38 and ICAM1 on the transformed cell lines was quantified by flow cytometry. Harvested cells were centrifuged at 2000 rpm for 5 min, resuspended in 10 - 15 ml ice-cold culture medium, and then counted. Then, 3×10⁶ cells were resuspended per ml of blocking buffer (PBS plus 2% FBS). 100 µl of the cell suspension was dispensed into each well of a 96-well plate and incubated at room temperature for 10-20 min. […] While incubating, purified antibodies were diluted to the desired dilution with blocking buffer. After a 10-20 minutes incubation, cells were centrifuged for 5 minutes at 2000 rpm in a refrigerated centrifuge. Blocking buffer was aspirated, and the cells were resuspended in 100 µl/well diluted antibodies and incubated for 1 hour at 4° C. The cells were then washed 3 times with PBS plus 2% FBS. […] The cells were then washed 3 times with 200 µl PBS by centrifuging at 2000 rpm for 5 min. After the last wash, the cells were resuspended in 300 µl cold PBS and analyzed on a FACSVerse™ (BD Biosciences) flow cytometer.
(§2) Binding of the chimeric anti-CD38 and anti-ICAM1 antibodies to proteins on the surface of tumor cells was determined by flow cytometry, as described above.

Avi-human CD38 ECD [3] = molecular target: T2, Avi-human CD38 ECD (human, UniProt P28907 43-300); assay: ELISA, plate coated with recombinant CD38
T2 construct: eluted as a monomer; also called hCD38; huCD38
Protocol: (§3) A 96-well plate was coated overnight at 4° C. with 1 µg/ml recombinant CD38 or ICAM1. After washing 3 times, the plate was blocked with 300 µl 1% BSA in PBST at 37° C. for 1 hour. Serially diluted antibodies were added and incubated at 37° C. for 1 hour. The plate was then washed 4 times with PBST and incubated with 1:5000 diluted 2nd antibody (Sigma, Cat# A0293) at 37° C. for 1 hour.

Avi-human CD38 ECD [4] = molecular target: T2, Avi-human CD38 ECD; assay: SPR (Biacore 8K), antibody captured, monomeric CD38 ECD injected
Protocol: (§4) Furthermore, binding kinetics measurements of the anti-CD38 and anti-ICAM1 antibodies were not affected by antibody valency in the SPR assays because antibodies were immobilized and challenged with monomeric antigens. SPR was performed on a Biacore 8K instrument (GE Healthcare). Antibodies were captured on Biacore Series S CM5 sensor chips coated with a monoclonal mouse anti-human IgG (Fc) antibody (GE Healthcare human antibody capture kit). Serial 3-fold dilutions of antigen (CD38 ECD or ICAM1 ECD) were injected at a flow rate of 30 µl/min. Each sample was analyzed with 1 min association and 10 min dissociation at room temperature (25° C.). After each injection, the chip was regenerated using 3 M MgCl₂. A 1:1 Langmuir model of simultaneous fitting of kₒₙ and koff was used for kinetics analysis.

[5] = molecular target: T1, CD38 on the surface of tumor cells; assay: cell-based or functional assay; remark: listed apart in the source
Avi-human CD38 ECD [6] = molecular target: T2, Avi-human CD38 ECD; assay: ELISA on human CD38 ECD; class A = EC50 0.02 nM - 0.1 nM (table legend)
Avi-human CD38 ECD [7] = molecular target: T2, Avi-human CD38 ECD; assay: SPR
Avi-human CD38 ECD [8] = molecular target: T2, Avi-human CD38 ECD; assay: ELISA on human CD38 ECD; class B = EC50 0.1 nM - 0.5 nM (table legend)
Avi-human CD38 ECD [9] = molecular target: T2, Avi-human CD38 ECD; assay: ELISA on human CD38 ECD; class C = EC50 >0.5 nM (table legend)
Human ICAM1 ECD-Avi [10] = molecular target: T3, Human ICAM1 ECD-Avi (human, UniProt P05362 28-480); assay: SPR
T3 construct: eluted as a monomer; also called hICAM1; recombinant ICAM1

[11] = molecular target: T4, ICAM1 on the surface of tumor cells (human, UniProt P05362 28-532); assay: flow cytometry on DU145 cells
T4 construct: whole, on cells; also called ICAM1 on DU145 cells; ICAM1 on the surface of Daudi cells
Protocol: as §1, §2

Human ICAM1 ECD-Avi [12] = molecular target: T3, Human ICAM1 ECD-Avi; assay: ELISA, plate coated with recombinant ICAM1
Protocol: as §3

Human ICAM1 ECD-Avi [13] = molecular target: T3, Human ICAM1 ECD-Avi; assay: SPR (Biacore 8K), antibody captured, monomeric ICAM1 ECD injected
Protocol: as §4

[14] = molecular target: T4, ICAM1 on the surface of tumor cells; assay: flow cytometry on Daudi cells; lower end of the range; Daudi cells
Protocol: as §1

B1: anti-CD38 chimeric monoclonal antibody 18E4 (antibody, human IgG1, kappa, V domains shown)
VH: QSLEESGGDLVKPGASLTLTCTASGFSFNNYWICWIRQAPGKGLEWVACIYSPSGDIKYYANWAKGRFTVSKTSSTTVTLQMTSLTGADTATYFCARELSGSSYEGYFESWGPGTLVTVSS
VL: AQVLTQTPSSVSAAVGGTVTINCQCSQSVYGHNWLAWYQHKPGQPPKLLMYRASNLASGVPSRFKGSGSGSQFTLTIGEVQSDDAATYYCQGYYNGGSYAFGGGTEVVVRR
notes: Rabbit variable domains on human IgG1 / human kappa constant regions; also called chimeric 18E4; Chimeric antibody 18E4
CDC on Daudi cells, EC50 [1]: 1000 to 2000 pM
EC50 [2]: 300 to 1000 pM
EC50 (Avi-human CD38 ECD [3]): ~50 pM
Kd (Avi-human CD38 ECD [4]): 100 to 500 pM

B2: h18E4-19 (antibody, V domains shown)
VH: EVQLLESGGGLVQPGGSLRLSCAASGFSFNNYWIIWIRQAPGKGLEWVAAIYSPSGDIKYYADWAKGRFTVSKDNSKNTVYLQMNSLRAEDTAVYYCARELSGSSYEGYFESWGQGTLVTV
VL: DIQLTQSPSTLSASVGDRVTITCRSSQSVYGHNWLAWYQQKPGKAPKLLMYRASNLASGVPSRFSGSGSGTEFTLTISSVQPDDFATYYCQGYYSGGSYAFGGGTKVEIK
notes: also called hu18E4-19; humanized h18E4-19 antibody
ADCC on Daudi cells, EC50 [1]: 0.05 to 0.1 pM
ADCC EC50 on Daudi cells; antibody made in CHO [5]: 12.7 pM
ADCC EC50 on Daudi cells; antibody made in CHO FUT8 -/- (afucosylated) [5]: 0.4 pM
ADCC EC50 on HuNS1 cells; antibody made in CHO [5]: 80 pM
ADCC EC50 on HuNS1 cells; antibody made in CHO FUT8 -/- (afucosylated) [5]: 80 pM
ADCC EC50 on Raji cells; antibody made in CHO [5]: 14 pM
ADCC EC50 on Raji cells; antibody made in CHO FUT8 -/- (afucosylated) [5]: 8 pM
EC50 (Avi-human CD38 ECD [6]): 20 to 100 pM

B3: h18E4-13 (antibody, V domains shown)
VH: EVQLLESGGGLVQPGGSLRLSCAASGFSFNNYWICWIRQAPGKGLEWVACIYSPSGDIKYYADWAKGRFTVSKDNSKNTVYLQMNSLRAEDTAVYYCARELSGSSYEGYFESWGQGTLVTVSS
VL: B2 VL
binding result (Avi-human CD38 ECD [7]): binds

B4: h18E4-19 HC G100cA (antibody, name in Kabat numbering, V domains shown)
VH: B2 VH with G108A
VL: B2 VL
notes: Alanine scan variant of h18E4-19; Kabat numbers, not linear positions of the entry
EC50 (Avi-human CD38 ECD [8]): 100 to 500 pM

B5: h18E4-19 HC E100bA (antibody, name in Kabat numbering, V domains shown)
VH: B2 VH with E107A
VL: B2 VL
notes: as for B4
EC50 (Avi-human CD38 ECD [9]): > 500 pM

B9: h18E4-19 LC G90A (antibody, V domains shown)
VH: B2 VH
VL: B2 VL with G92A
notes: as for B4
EC50 (Avi-human CD38 ECD [8]): 100 to 500 pM

B10: h18E4-19 HC Y100dA (antibody, name in Kabat numbering, V domains shown)
VH: B2 VH with Y109A
VL: B2 VL
notes: as for B4
EC50 (Avi-human CD38 ECD [9]): > 500 pM

B14: anti-ICAM1 chimeric monoclonal antibody 11F2 (antibody, human IgG1, kappa, V domains shown)
VH: QSVEESGGGLVKPGGTLTLTCTVSGFSLSSHAMGWVRQAPGKGLEYIGIIGSSDRTYYASWAKGRFTISKTSTTVDLKITSPTTEDTATYFCVRDPYDSYDDGYRLWGPGTLVTVSS
VL: AYDMTQTPASVEVAVGGTVTIKCQASQSIYRYLSWYQKKPGQRPKFLIYDASKLASGVPSRFEGSGSGTEFTLTISGAQSDDAATYYCQQAYSSGSIDNAFGGGTEVVVKR
notes: Rabbit variable domains on human IgG1 / human kappa constant regions; also called chimeric 11F2
EC50 [11]: 1000 to 1500 pM
EC50 (Human ICAM1 ECD-Avi [12]): ~50 pM
Kd (Human ICAM1 ECD-Avi [13]): 100 to 500 pM

B15: anti-ICAM1 chimeric monoclonal antibody 8B12 (antibody, human IgG1, kappa, V domains shown)
VH: B14 VH with S30T, Y100F
VL: B14 VL with R31S, K38Q, L54V, E63K, G77A, A78V, G95S, S96N, I97V, V108M
notes: Rabbit variable domains on human IgG1 / human kappa constant regions; also called chimeric 8B12
EC50 [11]: 1000 to 1500 pM
EC50 (Human ICAM1 ECD-Avi [12]): ~50 pM
Kd (Human ICAM1 ECD-Avi [13]): 100 to 500 pM
EC50 [14]: 40 to 80 pM

Second part, the binder after the results:

EC50 (Avi-human CD38 ECD [8]): 100 to 500 pM
B6: h18E4-19 LC S93A (antibody, V domains shown)
VH: B2 VH
VL: B2 VL with S95A
notes: as for B4

EC50 (Avi-human CD38 ECD [8]): 100 to 500 pM
B7: h18E4-19 LC Y96A (antibody, V domains shown)
VH: B2 VH
VL: B2 VL with Y99A
notes: as for B4

EC50 (Avi-human CD38 ECD [9]): > 500 pM
B8: h18E4-19 LC G94A (antibody, V domains shown)
VH: B2 VH
VL: B2 VL with G96A
notes: as for B4

EC50 (Avi-human CD38 ECD [9]): > 500 pM
B11: h18E4-19 LC Y91A (antibody, V domains shown)
VH: B2 VH
VL: B2 VL with Y93A
notes: as for B4

Kd (Avi-human CD38 ECD [7]): 2000 to 5000 pM
Kd (Human ICAM1 ECD-Avi [10]): 100 to 150 pM
B12: αCD38(scFv) x αICAM1 (bispecific antibody, human IgG1, kappa)
heavy: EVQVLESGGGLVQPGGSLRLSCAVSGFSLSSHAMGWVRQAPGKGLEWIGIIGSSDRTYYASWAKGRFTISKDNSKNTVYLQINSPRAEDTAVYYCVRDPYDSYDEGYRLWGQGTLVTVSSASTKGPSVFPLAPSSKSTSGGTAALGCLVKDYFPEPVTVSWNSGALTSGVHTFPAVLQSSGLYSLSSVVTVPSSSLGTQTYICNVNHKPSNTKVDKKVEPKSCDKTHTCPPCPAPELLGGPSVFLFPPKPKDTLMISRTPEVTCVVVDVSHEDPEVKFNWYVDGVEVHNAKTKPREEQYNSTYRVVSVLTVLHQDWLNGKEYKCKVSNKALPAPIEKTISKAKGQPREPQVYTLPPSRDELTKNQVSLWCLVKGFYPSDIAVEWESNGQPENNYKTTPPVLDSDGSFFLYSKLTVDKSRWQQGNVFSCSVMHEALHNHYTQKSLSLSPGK
light: DIQMTQSPSTLSASVGDRVTITCQASQSIYRYLSWYQQKPGKAPKFLIYDASKLASGVPSRFSGSGSGTEFTLTISSVQPDDFATYYCQQAYSSGSIDNAFGGGTKVEIKRTVAAPSVFIFPPSDEQLKSGTASVVCLLNNFYPREAKVQWKVDNALQSGNSQESVTEQDSKDSTYSLSSTLTLSKADYEKHKVYACEVTHQGLSSPVTKSFNRGEC
scFv: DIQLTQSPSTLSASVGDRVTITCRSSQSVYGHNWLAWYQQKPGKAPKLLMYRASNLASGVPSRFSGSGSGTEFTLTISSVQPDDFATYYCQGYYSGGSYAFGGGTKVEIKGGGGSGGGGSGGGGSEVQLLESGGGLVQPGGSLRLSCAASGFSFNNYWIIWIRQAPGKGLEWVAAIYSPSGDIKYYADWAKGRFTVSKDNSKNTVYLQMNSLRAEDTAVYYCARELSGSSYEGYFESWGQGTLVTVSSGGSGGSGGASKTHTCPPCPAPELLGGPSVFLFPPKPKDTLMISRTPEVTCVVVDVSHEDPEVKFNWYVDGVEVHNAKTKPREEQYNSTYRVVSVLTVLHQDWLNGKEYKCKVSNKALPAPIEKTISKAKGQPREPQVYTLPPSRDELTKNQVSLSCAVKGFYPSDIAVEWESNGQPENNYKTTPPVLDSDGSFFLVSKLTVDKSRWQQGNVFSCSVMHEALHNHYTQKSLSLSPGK
notes: h11F2-6 Fab arm on Fc-knob, h18E4-19 scFv on Fc-hole; IgG1 Fc; also called three chain bispecific antibody; scFv format bispecific antibody

Kd (Avi-human CD38 ECD [7]): 2000 to 5000 pM
Kd (Human ICAM1 ECD-Avi [10]): 100 to 150 pM
B13: αCD38(TCR) x αICAM1 (bispecific antibody, human IgG1, kappa)
heavy 1: EVQLLESGGGLVQPGGSLRLSCAASGFSFNNYWIIWIRQAPGKGLEWVAAIYSPSGDIKYYADWAKGRFTVSKDNSKNTVYLQMNSLRAEDTAVYYCARELSGSSYEGYFESWGQGTLVTVLEDLKNVFPPEVAVFEPSEAEISHTQKATLVCLATGFYPDHVELSWWVNGKEVHSGVCTDPQPLKEQPALQDSRYALSSRLRVSATFWQNPRNHFRCQVQFYGLSENDEWTQDRAKPVTQIVSAEAWGRASDKTHTCPPCPAPELLGGPSVFLFPPKPKDTLMISRTPEVTCVVVDVSHEDPEVKFNWYVDGVEVHNAKTKPREEQYNSTYRVVSVLTVLHQDWLNGKEYKCKVSNKALPAPIEKTISKAKGQPREPQVCTLPPSREEMTKNQVSLSCAVKGFYPSDIAVEWESNGQPENNYKTTPPVLDSDGSFFLVSKLTVDKSRWQQGNVFSCSVMHEALHNHYTQKSLSLSPG
light 1: DIQLTQSPSTLSASVGDRVTITCRSSQSVYGHNWLAWYQQKPGKAPKLLMYRASNLASGVPSRFSGSGSGTEFTLTISSVQPDDFATYYCQGYYSGGSYAFGGGTKVEIKPDIQNPDPAVYQLRDSKSSDKSVCLFTDFDSQTQVSQSKDSDVYITDKCVLDMRSMDFKSNSAVAWSQKSDFACANAFQNSIIPEDTFFPSPESS
heavy 2: not shown
light 2: B12 light
notes: also called TCR format bispecific antibody; TCR-chimera bispecific antibody
